Literature values in PMC4271544.
pKd: −log10 of the molar value.

Molecular target: Capping protein (CP) (Homo sapiens) (UniProt P52907)

For V-1 (myotrophin) (from UniProt P58546), the pKd is given as 7.40.
